In US20090175786A1:
Where no end group is shown, it is not given here.

Biological target: T1, neuromedin-B preferring receptor (NMB-R) of C6 rodent glioblastoma cells (rodent), P24053
T1 chain: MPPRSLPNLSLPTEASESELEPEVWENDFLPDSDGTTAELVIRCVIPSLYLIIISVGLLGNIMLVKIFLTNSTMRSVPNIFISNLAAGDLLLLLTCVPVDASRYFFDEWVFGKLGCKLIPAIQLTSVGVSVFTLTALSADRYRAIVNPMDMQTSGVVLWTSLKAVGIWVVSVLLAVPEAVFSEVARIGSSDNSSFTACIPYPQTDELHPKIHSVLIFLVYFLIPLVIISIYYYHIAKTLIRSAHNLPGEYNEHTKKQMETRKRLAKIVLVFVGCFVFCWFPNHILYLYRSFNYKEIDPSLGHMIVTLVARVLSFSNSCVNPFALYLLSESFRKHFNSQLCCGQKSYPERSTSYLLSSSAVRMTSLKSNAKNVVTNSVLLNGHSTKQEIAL
Experiment: 125I-NMB competition, C6 cells

EQRYGNQWAVGHLM-NH2 (also: name truncated at 'p…', N-terminal modification unresolved) [p…-NH2] gave an IC50 of 3.36 nM.
